For 167 variants, self-cleavage results are on record in the RNAGym collection of RNA variant scans (doi:10.7554/elife.80360).

To fix the notation:
B1: HDV Ribozyme (parent)
chain: GGCCGGCAUGGUCCCAGCCUCCUCGCUGGCGCCGGCUGGGCAACAUUCCGAGGGGACCGUCCCCUCGGUAAUGGCGAAUGGGACCCA

Variants of B1 are the subject of the series. Nature of the series: self-cleavage, relative activity (ratio to wild type); higher = more cleavage; co-transcriptional.
For the variant C13A G54C, the self-cleavage stood at 0.283.
Turning to G10U U12A, the self-cleavage was 0.0831.
With A51U C84G the figure was 0.443; with G2C C61A, 0.0391.
For U9A C44G, the self-cleavage came to 0.914.
With U9A C44U the figure was 0.95; with G67U C84A, 0.746; with C63A C85U, 0.911.
With G10C C22U the figure was 0.326; with G11A C64U, 0.249.
Consider U23G A77C, for which the self-cleavage is 0.172.
With G10A C84U the figure was 0.54.
As for C33G C44G, the figure is 0.101.
With A45C G81A the figure was 0.0959; with U46G G68C, 0.396.
C14A A43C: the self-cleavage is 0.0396.
As for U12G G54A, the figure is 0.831; as for U23A A45U, 0.727; as for G40U A78C, 0.132.
As for C44G G67U, the figure is 0.68; as for G1U C86U, 0.212; as for U37A U47A, 0.201.
In the case of A83G C86G, the self-cleavage is 0.807.
On to G28U C30U, for which the self-cleavage was determined as 0.
As for G73A G76U, the figure is 0.906; as for C41U A43G, 0.356.
As for C36A G73A, the figure is 0.104.
As for A43C C62G, the figure is 0.322; as for G5C A87G, 0.124; as for U20A A87C, 0.0631.
For the variant G54U A87C, the self-cleavage was found to be 1.06.
For the variant C19G C36G, the self-cleavage came to 0.0264.
With G34U C48A the figure was 0.251.
With G17U G50A the figure was 0.466; with C21A A43G, 0.132.
With G34A C85A the figure was 0.199; with U20A G28A, 0.145; with G10U G55U, 0.787.
Take C15U A42C: the self-cleavage was 0.161.
For the variant C18A U60C, the self-cleavage amounted to 0.
As for C44A U79A, the figure is 0.244; as for G31A G76A, 0.606; as for G59A C85G, 1.13.
With G31U C86G the figure was 0.451; with G34A C57G, 0.0997; with G5U U9A, 0.578.
With A8G A71C the figure was 0.447; with G40U C62A, 0.709.
Take C19A G81C: the self-cleavage was 0.0272.
U9C U20C: the self-cleavage is 0.
As for G6C A56U, the figure is 0.214.
With G11U G76A the figure was 0.292; with G39U A51G, 0.818; with U47C U69G, 1.02.
With G29A C44G the figure was 0.151; with C26U C32U, 0.799.
Take C22A C85G: the self-cleavage is 0.219.
As to C19G G53A, the self-cleavage is 0.041.
As for C24G A43U, the figure is 0.0237; as for C57G G68C, 0.831; as for C44U U65A, 0.846.
With C13G G81U the figure was 0.0475; with A16G U65C, 1.26.
With C18G G82A the figure was 0.0462; with G68C A70G, 0.639.
With A16C U23A, the self-cleavage worked out at 0.89.
As for C3A U20G, the figure is 0.0163; as for U12A G31A, 0.125; as for C85A A87U, 1.06.
As for C18A U46C, the figure is 0.095; as for C75A A83G, 0.0567.
With A8G C41A the figure was 0.914; with C22G A51G, 0.104.
For A8U C14U, the self-cleavage was 0.864.
With U46G C84U the figure was 0.287; with G31A C36G, 0.233; with C21A U37A, 0.
With G25U C32G the figure was 0.0222; with U47A G80U, 0.172.
Consider C24G G39U, for which the self-cleavage amounted to 0.0314.
As for U20C G35A, the figure is 0.101; as for C22G U23C, 0.
In the case of C62A C66A, the self-cleavage is 0.32.
With A43U A77U, the self-cleavage was found to be 0.151.
For C33A A42G, the self-cleavage is 0.
As for G17U G35A, the figure is 0.133; as for C33A G76C, 0.251; as for U12G C14A, 0.356.
With U9G G67U the figure was 1.25; with A43G A77G, 0.332.
C19A C41U: the self-cleavage amounted to 0.0382.
With G17C U60A the figure was 0.575; with C4A G39A, 0.119.
In the case of U60C G68C, the self-cleavage was determined as 0.755.
In the case of U79C A83U, the self-cleavage was determined as 0.323.
As for U37C A77U, the figure is 0.388; as for A42U G82C, 0.264.
Turning to G53U U65G, the self-cleavage was determined as 0.831.
As for C24A G74A, the figure is 0.12; as for C36A A71G, 0.0405.
As for C21G C49G, the figure is 0; as for G54U U65G, 0.782; as for C7G C64U, 0.396.
As for C41U C61U, the figure is 0.946; as for C33U G39U, 0.58.
On to U27C U60C, for which the self-cleavage amounted to 0.677.
For C49G G82A, the self-cleavage is 0.0966.
With C26G G29A the figure was 0.208; with C24A C58U, 0.742.
With A16G C85G, the self-cleavage was determined as 0.965.
With G5A G73A the figure was 0; with C64G G74U, 0.635.
Consider U9C C64U, for which the self-cleavage stood at 0.923.
Take U60G C85U: the self-cleavage is 1.15.
As to G31A G81C, the self-cleavage was 0.179.
As to G1U C32A, the self-cleavage amounted to 0.289.
Regarding C58A C85G, the self-cleavage came out at 0.957.
As to C15U G25C, the self-cleavage was determined as 0.0723.
As for U12G A51G, the figure is 0.867; as for G11A C21A, 0.11.
As for G54C U65G, the figure is 0.8.
Take C36U A43U: the self-cleavage is 0.095.
With G67U U69G the figure was 1.03.
As for A16G U46G, the figure is 0.554.
As for C26G C64U, the figure is 0.99; as for C19G C85U, 0; as for U12G C44A, 0.604.
A8C A51C: the self-cleavage stood at 0.802.
With C57G C85G the figure was 1.09; with G10C, 0.935; with G6A G73A, 0.256.
Turning to G11C C44G, the self-cleavage is 0.
As for G39C C85A, the figure is 0.203; as for C3A U47G, 0.237; as for C30A C49U, 0.615.
As for G35A C36G, the figure is 0.35.
Take U46G A78C: the self-cleavage turned out to be 0.277.
With G10U C86G the figure was 0.445; with C15G C18G, 0.0594.
With C14U G54A the figure was 1.04; with C13G U72C, 0.0723.
With U20C C41A the figure was 0.156; with C24G G59U, 0.147.
Consider U46A C84A, for which the self-cleavage came out at 0.629.
As for C44A C57G, the figure is 0.684.
With C57U C85U the figure was 1.11.
Regarding C41A C48U, the self-cleavage came to 1.02.
In the case of C3U C36G, the self-cleavage stood at 0.0519.
With U60G G80A the figure was 0.286; with C22G C84A, 0.0369.
As to G55U U60A, the self-cleavage is 0.886.
As for A16U G39C, the figure is 0.185.
For C58G A78G, the self-cleavage stood at 0.723.
With C14G G50U the figure was 0.639; with A45C G52U, 0.697.
With C13U G39A the figure was 0.332; with A78C A83C, 0.151; with G1U C64U, 0.451.
In the case of C4A G17U, the self-cleavage was 0.0292.
With C44G G54U the figure was 0.609; with A83U A87C, 0.751.
As for U9C C13A, the figure is 0.158; as for C22U A56U, 0.776; as for C18U A78C, 0.185.
With A8G C84G the figure was 0.396; with U9A G76A, 0.955.
C66G A77U: the self-cleavage was 0.597.
